The source of these data is US20240000914A1.

The target in the assay is adeno-associated virus 2 (AAV2) vector capsid (AAV2-nLuc) (adeno-associated virus 2) (UniProt P03135). Briefly: cell-based or functional assay.
Chain of UniProt P03135 (P03135 whole entry, the tested form may be a part): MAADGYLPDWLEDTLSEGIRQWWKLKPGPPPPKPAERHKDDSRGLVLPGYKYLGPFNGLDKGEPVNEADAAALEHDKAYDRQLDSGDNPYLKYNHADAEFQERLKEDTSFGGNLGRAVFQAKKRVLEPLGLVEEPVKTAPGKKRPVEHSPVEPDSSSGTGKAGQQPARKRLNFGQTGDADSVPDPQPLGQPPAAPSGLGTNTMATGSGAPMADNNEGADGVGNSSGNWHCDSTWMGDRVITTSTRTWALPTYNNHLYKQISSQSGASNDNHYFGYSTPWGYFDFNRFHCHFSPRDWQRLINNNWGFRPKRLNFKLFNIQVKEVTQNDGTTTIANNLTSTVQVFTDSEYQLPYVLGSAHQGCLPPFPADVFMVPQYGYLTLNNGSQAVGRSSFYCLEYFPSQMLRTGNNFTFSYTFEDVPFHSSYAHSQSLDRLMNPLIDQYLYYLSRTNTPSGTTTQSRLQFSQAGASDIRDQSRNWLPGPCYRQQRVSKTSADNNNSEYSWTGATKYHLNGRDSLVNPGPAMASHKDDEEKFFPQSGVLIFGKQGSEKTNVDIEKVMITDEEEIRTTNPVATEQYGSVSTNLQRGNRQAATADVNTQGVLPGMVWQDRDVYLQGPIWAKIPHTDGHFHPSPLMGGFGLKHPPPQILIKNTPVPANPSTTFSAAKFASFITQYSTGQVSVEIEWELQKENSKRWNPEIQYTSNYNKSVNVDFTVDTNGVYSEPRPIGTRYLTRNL

In the case of “human intravenous immunoglobulin (IVIG) (antibody)”, the 50% geometric mean neutralizing reciprocal titer (50% GMT) (50% GMT (reciprocal titer)) is 1280 and the neutralization of AAV2-nLuc transduction (reciprocal dilution) is 1250.
